Columns and labels:
[1] = biological target: T1, full length human KLRG1 expressed on CHOK1 cells (CHOK1-hKLRG1) (human, UniProt Q96E93 1-195); assay: FACS on CHOK1-hKLRG1 cells, anti-human IgG-Alexa 488 detection
T1 construct: whole, on cells; also called killer cell lectin-like receptor G1
T1 sequence (looked up): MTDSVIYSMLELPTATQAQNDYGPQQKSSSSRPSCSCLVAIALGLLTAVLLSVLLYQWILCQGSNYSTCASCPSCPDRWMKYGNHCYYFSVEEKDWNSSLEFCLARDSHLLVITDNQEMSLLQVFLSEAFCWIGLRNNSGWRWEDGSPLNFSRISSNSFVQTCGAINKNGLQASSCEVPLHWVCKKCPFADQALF
Method: Binding of anti-KLRG1 monoclonal antibodies to cell expressed human and cynomolgus-KLRG1 is carried out by FACS. Chinese hamster ovary (CHO) cells are stably transfected to express full length human KLRG1 (CHOK1-hKLRG1)). CHOK1-hKLRG1 expressing cells were cultured and incubated with varying concentrations of either PA015 or control human IgG1. Cells were then centrifuged, the supernatant discarded, and washed with an incubation buffer (HBSS+2% FBS+10 mM Ca2+). Cells were resuspended and incubated with anti-human IgG-Alexa 488, washed, resuspended, and underwent FACS study.

[2] = biological target: T1, full length human KLRG1 expressed on …; assay: FACS competition on CHOK1-hKLRG1 cells; inhibition of E-cadherin-ECD-FC-biotin (0.3 uM) binding
Method: The ability of monoclonal antibodies to inhibit E-cadherin/KLRG1 binding is measured by FACS.
(§1) CHOK1-hKLRG1 expressing cells were cultured and incubated with varying concentrations of either PA015 or control human IgG1. Recombinant human E-cadherin-ECD-FC-biotin at 0.3 μM was then added and incubated. Cells were then centrifuged, the supernatant discarded, and washed with an incubation buffer (HBSS+2% FBS+10 mM Ca2+). Cells were resuspended and incubated with Streptavidin-Alexa 488, washed, resuspended, and underwent FACS study.

[3] = biological target: T1, full length human KLRG1 expressed on …; assay: FACS competition on CHOK1-hKLRG1 cells; inhibition of E-cadherin-ECD-FC-biotin (0.3 uM) binding (Example 7)
Method: as §1, with “PA015, HG1N01, HG1N02” for “either PA015”, “were” for “were then”

B1: PA015 (antibody, human IgG1, kappa, V domains shown)
VH: QVTLRESGPALVKPTQTLTLTCTVSGFSLSTFGMGVGWIRQPPGKALEWLAHIWWDDDKWYELALKSRLTISKDTSKNQVVLTITNMDPVDTATYYCARVIYYGSRSAYYSMDYWGQGTTVTVSS
VL: DVVMTQTPLSLSVTPGQPASISCKSSQSIVHSNAHTYLEWYLQKPGQSPQLLIYKVSNRFSGVPDRFSGSGSGTDFTLKISRVEAEDVGVYYCFQGSHVPVTFGQGTKLEIKR
notes: also called PA015 antibody; anti-KLRG1 antibody PA015
EC50 [1]: 1.33 nM
IC50 [2]: 8.05 nM
IC50 [3]: 5.3 nM
